Columns and labels:
human GPC3 on cells [1] = target: T1, human GPC3 on cells (human, UniProt P51654 25-554); assay: FACS, Huh-7 cells
T1 construct: whole, on cells; over-expressed on CHOK1 cells or endogenous on HEPG2, Hep3B and Huh-7 hepatocellular carcinoma cells; the cell line is named under assay; also called GPC3-CHOK1 cells; human GPC3 over-expressed CHOK1 cells
Protocol: (§1) To evaluate the antigen binding property, the humanized antibodies were analyzed for their binding to human GPC3 over-expressed CHOK1 cells and Huh-7 cells by FACS. Briefly, GPC3-CHOK1 cells and Huh-7 cells were firstly incubated with Fc blocking reagent at 4° C. for 15 mins. Cells were washed by FACS buffer and divided to each well with 4-fold serially diluted humanized antibodies starting at 10 μg/mL at 4° C. for 60 mins. Cells were washed by FACS buffer and fixed with 2% PFA at RT for 15 mins. […] As different plates might affect the EC50 of 52H5D3B8-VH+VL, the 12 humanized antibodies were separated into two plates.

human GPC3 on cells [2] = target: T1, human GPC3 on cells; assay: FACS, GPC3-CHOK1 cells
Protocol: as §1

[3] = target: T2, human GPC3-his tag protein (human, UniProt P51654 25-559, limits assumed); assay: SPR Biacore 8K, mAb captured, affinity ranking
T2 construct: recombinant soluble antigen used as analyte in all Biacore runs; also called recombinant GPC3 protein; rhGPC3-His; not shown: His tag
Protocol: To evaluate antigen binding activity, the chimeric antibody's affinity was measured by Biacore 8K. Two concentrations with most close affinity to the chimeric antibody's affinity were chosen for the 12 humanized antibodies' affinity detection. Human GPC3-his tag protein was injected over captured antibody for 3 mins at a flow rate of 30 μl/min. The antigen was allowed to dissociate for 720 s.

human GPC3 on cells [4] = target: T1, human GPC3 on cells; assay: FACS, GPC3-CHOK1 cells; remark: listed apart in the source
Protocol: To evaluate the antigen binding property, the affinity maturated antibodies were analyzed for their binding to human GPC3 over-expressed CHOK1 cells by FACS as previously described.

human GPC3 on cells [5] = target: T1, human GPC3 on cells; assay: cell-based or functional assay
human GPC3 on cells [6] = target: T1, human GPC3 on cells; assay: cell-based or functional assay; remark: listed apart in the source
human GPC3 on cells [7] = target: T1, human GPC3 on cells; assay: FACS, Huh-7 cells; remark: listed apart in the source
Protocol: as §1

human GPC3 on cells [8] = target: T1, human GPC3 on cells; assay: FACS, HEPG2 cells
From the text: (§2) FACS was used to evaluate the binding activity of Hu 52H5D3B8-7 and Hu 52H5D3B8-8 with comparison to benchmark antibodies GC33 and Y035 on human GPC3 expressed on CHOK1 cells, Huh-7 cell and HEPG2 cells. In order to evaluate the properties of CDRs and frameworks of Hu 52H5D3B8-7 Ab, two chimeric antibodies were generated. The antibody termed “Hu 52H5D3B8-7/8 CDRs with Y035 FRs” contains the Hu 52H5D3B8-7 CDRs and the Y035 FRs. The antibody termed “Y035 CDRs with Hu 52H5D3B8-7 FRs” represents the chimeric antibody with the Y035 CDRs engrafted to Hu 52H5D3B8-7 FRs.

human GPC3 on cells [9] = target: T1, human GPC3 on cells; assay: FACS, Huh-7 cells; remark: listed apart in the source
From the text: as §2

human GPC3 on cells [10] = target: T1, human GPC3 on cells; assay: FACS, GPC3-CHOK1 cells; remark: listed apart in the source
Protocol: as §1

human GPC3 on cells [11] = target: T1, human GPC3 on cells; assay: FACS, GPC3-CHOK1 cells; remark: listed apart in the source
From the text: as §2

human GPC3 on cells [12] = target: T1, human GPC3 on cells; assay: cell-based or functional assay; remark: listed apart in the source

B1: Hu 52H5D3B8-12 (antibody, V domains shown)
VH: EVQLVQSGAEVKKPGASVKVSCKASGYTFTDYEMHWVRQAPGQGLEWIGAIHPGSGGTAYNQKFKGKATLTADKSISTAYMELSRLRSDDTAVYYCTRFYSYAYWGQGTLVTVSS
VL: DVVMTQTPLSLSVTPGQPASISCRSSQSLVHSNGNTYLQWYLQKPGQSPQLLIYKVSNRFSGVPDRFSGSGSGTDFTLKISRVEAEDVGVYFCSQSIHVPYTFGGGTKVEIK
notes: humanized 52H5D3B8; also called 52H5D3B8 VH5 + VL1
For B1, the EC50 (human GPC3 on cells [1]) was 0.0294 µg/mL, the EC50 (human GPC3 on cells [2]) was 0.0384 µg/mL and the Kd [3] was 3.22 nM. It also gave a koff [3] of 0.001 s⁻¹ and a kon [3] of 310000 M⁻¹ s⁻¹.

B2: 52H5D3B8-20#-VH2+VL3 (antibody, V domains shown)
VH: QVQLVQSGAEVKKPGASVKVSCKASGYRFTDYEMHWVRQAPGQGLEWIGAIHPGSGGTAYNQLFKGRVTMTADTSTSTVYMELSSLRSEDTAVYYCTRYYSYAYWGQGTLVTVSS
VL: DIVMTQTPLSLSVTPGQPASISCRSSQSLVHSNGNTYLQWYLQKPGQSPKLLIYKVSNRFPGVPDRFSGSGSGTDFTLKISRVEAEDVGVYYCVESIHVPYTFGGGTKLEIK
B2 was tested, and the EC50 (human GPC3 on cells [4]) was 0.207 nM, the “EC50 of ADCC signaling (Jurkat-hCD16a-NFAT luciferase reporter), HEPG2 cells” value (human GPC3 on cells [5]) was 0.0571 nM and the “EC50 of ADCC signaling (Jurkat-hCD16a-NFAT luciferase reporter), Huh-7 cells” value (human GPC3 on cells [5]) was 0.124 nM. The “EC50 of ADCC cytotoxicity (primary NK cells, LDH), HEPG2 cells” value (human GPC3 on cells [6]) was 0.121 nM and the “EC50 of ADCC cytotoxicity (primary NK cells, LDH), Huh-7 cells” value (human GPC3 on cells [6]) was 0.0287 nM.

B3: 52H5D3B8-19#-VH2+VL3 (antibody, V domains shown)
VH: QVQLVQSGAEVKKPGASVKVSCKASGYTFTGYEMHWVRQAPGQGLEWIGAIHPGSGGTAYNQKFKGRVTMTADTSTSTVYMELSSLRSEDTAVYYCTRYYSYAYWGQGTLVTVSS
VL: DIVMTQTPLSLSVTPGQPASISCRSSQSLVHSNGNTYLQWYLQKPGQSPKLLIYKVSNRFAGVPDRFSGSGSGTDFTLKISRVEAEDVGVYYCVESIHVPYTFGGGTKLEIK
B3 was tested, and the EC50 (human GPC3 on cells [4]) was 0.207 nM, the “EC50 of ADCC signaling (Jurkat-hCD16a-NFAT luciferase reporter), HEPG2 cells” value (human GPC3 on cells [5]) was 0.0844 nM and the “EC50 of ADCC signaling (Jurkat-hCD16a-NFAT luciferase reporter), Huh-7 cells” value (human GPC3 on cells [5]) was 0.266 nM. For the same binder, the “EC50 of ADCC cytotoxicity (primary NK cells, LDH), HEPG2 cells” value (human GPC3 on cells [6]) was 0.0852 nM and the “EC50 of ADCC cytotoxicity (primary NK cells, LDH), Huh-7 cells” value (human GPC3 on cells [6]) was 0.0328 nM.

B4: Hu 52H5D3B8-8 (antibody, V domains shown)
VH: EVQLVQSGAEVKKPGASVKVSCKASGYTFTDYEMHWVRQAPGQGLEWMGAIHPGSGGTAYNQKFKGRVTMTADKSISTAYMELSRLRSDDTAVYYCTRFYSYAYWGQGTLVTVSS
VL: DVVMTQTPLSLSVTPGQPASISCRSSQSLVHSNGNTYLQWYLQKPGQSPQLLIYKVSNRFSGVPDRFSGSGSGTDFTLKISRVEAEDVGVYFCSQSIHVPYTFGGGTKVEIK
notes: humanized 52H5D3B8; also called 52H5D3B8 VH3 + VL1
B4 gave an EC50 (human GPC3 on cells [7]) of 0.0233 µg/mL, an EC50 (human GPC3 on cells [8]) of 0.693 nM and an EC50 (human GPC3 on cells [9]) of 0.418 nM. The EC50 (human GPC3 on cells [10]) was 0.0432 µg/mL, the EC50 (human GPC3 on cells [11]) was 0.434 nM and the “internalization activity to HEPG2 cells, EC50 (pHAb dye fluorescence)” value (human GPC3 on cells [12]) was 0.78 µg/mL. For the same binder, the Kd [3] was 3.31 nM, the koff [3] was 0.0011 s⁻¹ and the kon [3] was 332000 M⁻¹ s⁻¹.

B5: Hu 52H5D3B8-7 (antibody, V domains shown)
VH: EVQLVQSGAEVKKPGASVKVSCKASGYTFTDYEMHWVRQAPGQGLEWMGAIHPGSGGTAYNQKFKGRVTMTADKSISTAYMELSRLRSDDTAVYYCTRFYSYAYWGQGTLVTVSS
VL: DVVMTQTPLSLSVTPGQPASISCRSSQSLVHSNGNTYLQWYLQKPGQSPQLLIYKVSNRFSGVPDRFSGSGSGTDFTLKISRVEAEDVGVYYCSQSIHVPYTFGGGTKVEIK
notes: humanized 52H5D3B8; also called 52H5D3B8 VH3 + VL0
Work on B5 yielded an EC50 (human GPC3 on cells [7]) of 0.0242 µg/mL, an EC50 (human GPC3 on cells [8]) of 0.757 nM and an EC50 (human GPC3 on cells [9]) of 0.464 nM. For the same binder, the EC50 (human GPC3 on cells [10]) was 0.0447 µg/mL, the EC50 (human GPC3 on cells [11]) was 0.467 nM and the “internalization activity to HEPG2 cells, EC50 (pHAb dye fluorescence)” value (human GPC3 on cells [12]) was 0.72 µg/mL. The Kd [3] was 3.23 nM, the koff [3] was 0.00103 s⁻¹ and the kon [3] was 320000 M⁻¹ s⁻¹.

B6: Hu 52H5D3B8-10 (antibody, V domains shown)
VH: EVQLVQSGAEVKKPGASVKVSCKASGYTFTDYEMHWVRQAPGQGLEWIGAIHPGSGGTAYNQKFKGRVTLTADKSISTAYMELSRLRSDDTAVYYCTRFYSYAYWGQGTLVTVSS
VL: DVVMTQTPLSLSVTPGQPASISCRSSQSLVHSNGNTYLQWYLQKPGQSPQLLIYKVSNRFSGVPDRFSGSGSGTDFTLKISRVEAEDVGVYFCSQSIHVPYTFGGGTKVEIK
notes: humanized 52H5D3B8; also called 52H5D3B8 VH4 + VL1
With B6 the EC50 (human GPC3 on cells [1]) was 0.0323 µg/mL, the EC50 (human GPC3 on cells [2]) was 0.0389 µg/mL and the Kd [3] was 3.89 nM. The koff [3] was 0.00104 s⁻¹ and the kon [3] was 267000 M⁻¹ s⁻¹.

Source: patent US20240409663A1 (CONCEPT TO MEDICINE BIOTECH, published 2024)
